32 sequences from the domain aggregation screens of Martell et al. (2025) can be followed below.

A short description of this data set: soluble fraction after stress (log2 fold change); higher = more stays soluble; pooled small domains, quantitative proteomics. Particulars: stress: 50 degC. The method, boiled down: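 The measure of aggregation propensity here is the base-two logarithm of the fold change in the soluble amount of each protein after stress. A higher value means more of that protein stays in solution. Stress was applied at 50°C to pooled libraries of small protein domains, read out by high-throughput quantitative proteomics.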

For “HMYNPAYDAEIKVILELARHGYWEEARERADELLKAAPDDTGVKRIQTWVRQQEQRMREQAIEDSIRA”, the “soluble fraction (log2)” value is -0.0287.
On to “HMFPASQPVPTDLNQIVRAGLEVFSGRLEGIDVRVSLEPELPRVNVDPEHFKRIVVNLVDNAAEAMQNS”, for which the “soluble fraction (log2)” value is -0.0549.
As to “HMGTKRWELPRRVQQMATQHGKSISTAAAEELVSRSGENTRMLDNDLVKLAQMVEAPQIELADVERWIVR”, the “soluble fraction (log2)” value amounted to 0.221.
For “HMTGVEAIERYLASGVIPGVGPVLAKRLVERFGARTLEVIEDSPRRLTQVPGIGRQKARQIHQALKAQRE”, the “soluble fraction (log2)” value was -0.25.
“HMSGYAIVNNQPGRTLNLRNSPSQSNNIIGQIPSGTRLQLISRGETWSEVIFQTTRGFVMSSFLRFET”: the “soluble fraction (log2)” value was -0.809.
Turning to “HMRPSGTAGILRYLSSGAIRGIGATTAQRLVSEFGEKTLDVMENEPERVAMLKGISKSKAEDFSLQLKQS”, the “soluble fraction (log2)” value is 0.0105.
As to “HMIIYGLNPVKDFINLFPNKISTLFISKNKLSDSEMKSVVNINTVYVSDAELKRITGTTKHQSLAAEID”, the “soluble fraction (log2)” value was -1.21.
For “HMAAVEDLPVKSVNGKKYHYYTVQPKESLYSLSHKLGISRQEIIKYNPGVEDGLKAYEDLLFPYTPK”, the “soluble fraction (log2)” value amounted to 0.105.
As for “HMNNTIKFSVDENNSGKRLDVYLTENINHLTRSFLKKLIEKEQVKLNKKVLTSPATKVKTKDQITINIIE”, the “soluble fraction (log2)” value is 0.172.
The same measure for “HMAQPIPSGSDIREAREAAGMNLRDFARMVGGGAIGTWSHYETGKPIRVKSISPEVWQRVRDFILQHGK”: -0.417.
In the case of “HMYVTGETIRHLRTQRRMTQEQLAETLGVTGKAVSKWETGRGFPDMSLLEPLARALRISVPELLSGE”, the “soluble fraction (log2)” value is -0.614.
On to “HMRTTYKTRLETLLAGPMSAGDRRFASSLLDFYNRKNRLTPGRARFVAQLEDRYSAEALAARQG”, for which the “soluble fraction (log2)” value is -0.961.
On to “HMSSPRAIYSAIQKAVGEDMILYREDVQIILDKLDADLLVDDILEKMELDGTLVRQRDGTWLLL”, for which the “soluble fraction (log2)” value was -0.658.
For “HMSETEEWTVEGGQAGDRIDRHVAAMLGDDVSRSQVQQWIRAGRVTVNGRAVKPSDTVEEGDRVAVDLPEP”, the “soluble fraction (log2)” value is 0.0588.
The same measure for “HMDSDIGQQLKILLTVGTFMPSTELKAIAQQFGMKKPTDLKEWVELESDTQRIKGNPTKGYWINEINDL”: -0.562.
The same measure for “HMPEVAHTIDMEAVNKHWDELPEREQRILVMRFYGNLTQTEIGERLGISQMHVSRLLARALSHLKSRLLD”: -3.37; for “HMVQISNTDDLYPIVQRIVDANPQSVEDYKNGKAKALGFLVGQMMKETKGKANPSMVNDLIIKAIEE”: 0.123.
The same measure for “HMDLGEQIIEKLRAAGGFLAITDKSPAEEIYELFATSKKNYKKAVGGLYKKGLLVIEDDGIRLTPAGR”: -0.102.
With “HMNIMNINQALNVLNLKGTVSKEELAKAYKKMAIKYHPDRNPTGVEMMKVINSAYEFLKGLNLEEIKH”, the “soluble fraction (log2)” value came to 0.256.
Turning to “HMKKTPLSELTNRAVELFIETVFMERNYSVSSQRQFISALKIFTVFYPQTKIHNLSLERLQSSFDKLLN”, the “soluble fraction (log2)” value was -0.452.
The value for “HMNEMSDTITRLLDAAETGIRLRGYHAVSFRDLAEELGIKSSSVHYYFRQKEDLGLAVVERY” was 0.0289; that for “HMGLWWTEAERELVKTTIEQLYKDTNIAEPVDSKNLRASIPALKAMRTGLSAENQARVDTLLGALQV” was -0.157.
Turning to “HMLNENNHGEWSIRMSNGLVVRLGRDELNRSLRRSIMAYAGLAPNYRSSIEYIDARYLGGVALKTF”, the “soluble fraction (log2)” value is -0.091.
Regarding “HMLAAGTSLTVDTESSNLNIRQEPSTEGVILGKAAKGEVVTLVEQSSDEWWKIKTKDGEEGYAYARYLR”, the “soluble fraction (log2)” value was found to be 0.203.
As to “HMLDYQLQVFKDTLEANRKHRGQKIVFIHGKGEGVLRRALIHALNYQYKKFTYQDASFREYGYGATQVTI”, the “soluble fraction (log2)” value was -0.103.
As to “HMNAMKPVLTVSLGVHTDSLSRRLNEEGIIYRWQQAASEQLLLVDSESSSERIAELIHDWRLEQSSS”, the “soluble fraction (log2)” value is -0.0169.
As for “HMEEDPILVAQRFLNIFRQLHIFDQQRREEFNSMILALPPEIRGTFGVLPGGSVLQEYVDELEISKGMA”, the “soluble fraction (log2)” value was -0.512.
In the case of “HMRNGGHTVYRNNGSLFIVVRDGDKLESVASEFRVSPKKLIKYNDLDIHSNVKTGDMIYIRPKA”, the “soluble fraction (log2)” value was -0.236.
Regarding “HMSFNSQENKSVLWQFLLENNFFIGLSDKKFNKVKDIFEKNIQSISIVNDSISNKNKILIQKMMEELELL”, the “soluble fraction (log2)” value was -1.88.
Take “HMLDFGQEDSEAVSEIILVLGRYWMDFSHKKYPEAEGSALRHKGISHIFTVLKPYLTSATAQLIEQRLQQ”: the “soluble fraction (log2)” value was found to be 0.00235.
As for “HMTEIILTARSGRHAVRHRLEGLGYTLTPEELERVHQRFLAVADAKKEVFDEDLHALMADERGT”, the “soluble fraction (log2)” value came to 0.0349.
The value for “HMNETHANKVYNFLKKKKKPLSAYEILKELASEGISAPTTIYRALNKLVSNGLIHKIESLNAWTV” was 0.318.
